± gives the uncertainty stated by the source.
Experiment: self-splicing fitness, log relative to wild type (ln ratio); higher = more splicing; Tetrahymena group I intron in knt gene, E. coli kanamycin selection, DiMSum; sequences stand for … in CUCUCU…GGAGGGAAAAGUUAUCAGGCAUGCACCUGGUAGCUAGUCUUUAAACCAAUAGAUUGCAUCGGUUUAAAAGGCAAGACCGUCAAAUUGCGGGAAAGGGGUCAACAGCCGUUCAGUACCAAGUCUCAGGGGAAACUUUGAGAUGGCCUUGCAAAGGGUAUGGUAAUAAGCUGACGGACAUGGUCCUAACCACGCAGCCAAGUCCUAAGUCAACAGAUCUUCUGUUGAUAUGGAUGCAGUUCACAGACUAAAUGUCGGUCGGGGAAGAUGUAUUCUUCUCAUAAGAUAUAGUCGGACCUCUCCUUAAUGGGAGCUAGCGGAUGAAGUGAUGCAACACUGGAGCCGCUGGGAACUAAUUUGUAUGCGAAAGUAUAUUGAUUAGUUUUGGAGUACUCGUGGUCG
Method in brief: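 DiMSum derived fitness as the error-weighted combination of fold changes across replicates, kanamycin versus no kanamycin, normalised to wild type. E. coli BL21(DE3) held the library, which randomised all eight P1ex-region intron nucleotides within the knt kanamycin-resistance gene on pET-22b(+). Six replicate transformations grew overnight at 37°C or 30°C on LB agar with or without 25 μg/mL kanamycin, also containing 100 μg/mL carbenicillin, 50 μM IPTG and 0.2% rhamnose, and pooled colonies were amplicon-sequenced on an Illumina HiSeq 2500.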

| Sequence | self-splicing fitness (ln) (30 °C) | self-splicing fitness (ln) (37 °C) |
| --- | --- | --- |
| GGUUAGCAAUAUUACGUAGG | -2.51 ± 0.18 | -1.03 ± 0.14 |
| AUCUAGCAAUAUUACGGCGC | -0.932 ± 0.11 | -0.0721 ± 0.14 |
| CCACAGCAAUAUUACGGCUC | -3.39 ± 0.18 | -1.79 ± 0.16 |
| UUAGAGCAAUAUUACGAAAC | -2.21 ± 0.41 |  |
| ACCCAGCAAUAUUACGCACC | -1.17 ± 0.1 | -0.52 ± 0.16 |
| GUAUAGCAAUAUUACGCUUA | -2.39 ± 0.17 | -1.23 ± 0.2 |
| GUUUAGCAAUAUUACGUAUA | -2.12 ± 0.16 | -1.41 ± 0.22 |
| GUGGAGCAAUAUUACGGGAC | -2.17 ± 0.29 |  |
| UUUCAGCAAUAUUACGUCCA | -0.967 ± 0.14 | 0.0389 ± 0.16 |
| GCUGAGCAAUAUUACGUAUU | -4.1 ± 0.28 | -2.3 ± 0.22 |
| GAUCAGCAAUAUUACGGACG | -0.737 ± 0.13 | -0.212 ± 0.18 |
| CUCUAGCAAUAUUACGAUGA | -1.93 ± 0.2 | -1.93 ± 0.29 |
| AUGGAGCAAUAUUACGAACA | -1.55 ± 0.38 |  |
| UACGAGCAAUAUUACGUGCC | -2.35 ± 0.29 |  |
| AGGAAGCAAUAUUACGUAGU | -2.73 ± 0.15 | -2.63 ± 0.21 |
| UCCUAGCAAUAUUACGGCGA | -0.128 ± 0.092 | 0.153 ± 0.1 |
| GUUCAGCAAUAUUACGAUAC | -0.948 ± 0.078 | -0.47 ± 0.13 |
| UACCAGCAAUAUUACGUCAA | -1.19 ± 0.079 | -0.33 ± 0.086 |
| CUGAAGCAAUAUUACGUUGU | -4.42 ± 0.13 | -2.28 ± 0.14 |
| CUAAAGCAAUAUUACGAAGG | -1.03 ± 0.095 | -0.0689 ± 0.14 |
| AUCUAGCAAUAUUACGUCCG | -1.67 ± 0.2 | -1.42 ± 0.28 |
| ACACAGCAAUAUUACGAUAU | -1.63 ± 0.08 | -1.62 ± 0.098 |
| UCAUAGCAAUAUUACGGCCG | -0.395 ± 0.15 | 0.157 ± 0.16 |
| GAUCAGCAAUAUUACGCGUU | -2.22 ± 0.1 | -1.21 ± 0.12 |
| UGGCAGCAAUAUUACGGUCC | -0.382 ± 0.16 | 0.88 ± 0.13 |
| AAACAGCAAUAUUACGUUUC | -3.8 ± 0.1 | -2.73 ± 0.11 |
| GGUCAGCAAUAUUACGUUUC | 0.000828 ± 0.13 | -0.437 ± 0.14 |

| Sequence | self-splicing fitness (ln) (30 °C) | self-splicing fitness (ln) (37 °C) |
| --- | --- | --- |
| GAGGAGCAAUAUUACGAUAA | -2.91 ± 0.26 | -1.35 ± 0.33 |
| CUACAGCAAUAUUACGUAAG | -1.14 ± 0.068 | -0.424 ± 0.092 |
| GAGAAGCAAUAUUACGCGGU | -2.38 ± 0.16 | -0.663 ± 0.16 |
| CCGCAGCAAUAUUACGCUUU | -3.86 ± 0.18 | -2.97 ± 0.18 |
| CUGAAGCAAUAUUACGCCGG | -1.86 ± 0.25 | -1.19 ± 0.25 |
| GCAGAGCAAUAUUACGAAAG | -2.9 ± 0.16 | -3.24 ± 0.26 |
| CCCAAGCAAUAUUACGGUAA | -2.25 ± 0.14 | -1.4 ± 0.16 |
| GUGUAGCAAUAUUACGUGGC | -1.72 ± 0.18 |  |
| UCGAAGCAAUAUUACGAGCG | -1.04 ± 0.078 | -0.114 ± 0.094 |
| UUCGAGCAAUAUUACGUUCU | -1.47 ± 0.15 | -0.345 ± 0.16 |
| UACUAGCAAUAUUACGUCGU | -2.15 ± 0.16 | -1.96 ± 0.18 |
| AACGAGCAAUAUUACGGGAA | -2.18 ± 0.22 | -2.74 ± 0.27 |
| CGCUAGCAAUAUUACGAUGG | -0.85 ± 0.075 | 0.251 ± 0.083 |
| GAAGAGCAAUAUUACGCUGA |  | -2.3 ± 0.28 |
| GAAAAGCAAUAUUACGUCUU | -0.419 ± 0.068 | 0.391 ± 0.086 |
| UGCAAGCAAUAUUACGUUAU | -3.76 ± 0.15 | -1.3 ± 0.1 |
| CGACAGCAAUAUUACGUGAA | -1.93 ± 0.11 | -2.02 ± 0.15 |
| CACAAGCAAUAUUACGAACG | -0.561 ± 0.055 | 0.286 ± 0.079 |
| UAGAAGCAAUAUUACGUCAU | -2.84 ± 0.2 | -1.99 ± 0.15 |
| AUAGAGCAAUAUUACGAGAA |  | -1.82 ± 0.32 |
| AUUGAGCAAUAUUACGUAGC | -3.31 ± 0.4 | -2.32 ± 0.31 |
| GAUCAGCAAUAUUACGGUCU | -3.56 ± 0.21 | -1.9 ± 0.2 |
| UGACAGCAAUAUUACGGCAC | -3.55 ± 0.19 | -2.23 ± 0.19 |
| UUUGAGCAAUAUUACGUUAU | -3.92 ± 0.21 | -1.9 ± 0.16 |
| GUUUAGCAAUAUUACGUACC | -1.45 ± 0.48 |  |
| GAGGAGCAAUAUUACGACCA | -2.57 ± 0.4 |  |
| UGCCAGCAAUAUUACGUUAC | -2.48 ± 0.23 | -3.38 ± 0.31 |

| Sequence | self-splicing fitness (ln) (30 °C) | self-splicing fitness (ln) (37 °C) |
| --- | --- | --- |
| AGUGAGCAAUAUUACGUAGC | -1.99 ± 0.14 | -3.39 ± 0.39 |
| UCGCAGCAAUAUUACGUCUG |  | -1.97 ± 0.18 |
| CUUCAGCAAUAUUACGAGGC | -4.72 ± 0.41 | -1.59 ± 0.4 |
| GUUAAGCAAUAUUACGACGC | -1.05 ± 0.24 | -0.36 ± 0.21 |
| UUCCAGCAAUAUUACGAGUG | -0.354 ± 0.059 | -0.52 ± 0.069 |
| GACGAGCAAUAUUACGGGGC | -2.83 ± 0.13 | -2.25 ± 0.16 |
| GCAAAGCAAUAUUACGGCUA | -0.821 ± 0.07 | -0.279 ± 0.073 |
| ACAUAGCAAUAUUACGGAGG | -3 ± 0.17 | -0.703 ± 0.15 |
| AUGCAGCAAUAUUACGAGAA | -3.47 ± 0.32 | -2.64 ± 0.34 |
| UCGUAGCAAUAUUACGCUUU | -2.74 ± 0.14 | -2.4 ± 0.15 |
| UUGGAGCAAUAUUACGGAGG | -2.92 ± 0.24 | -2.01 ± 0.36 |
| ACUCAGCAAUAUUACGGGAU | -1.32 ± 0.056 | -0.522 ± 0.076 |
| GCUUAGCAAUAUUACGAAGC | -4.18 ± 0.31 | -4.66 ± 0.36 |
| ACGGAGCAAUAUUACGGUUC | -4.29 ± 0.37 | -1.32 ± 0.22 |
| UCCCAGCAAUAUUACGAGGC | -2.23 ± 0.14 | -0.738 ± 0.14 |
| ACACAGCAAUAUUACGUUCA | -1.96 ± 0.066 | -0.442 ± 0.064 |
| UCUAAGCAAUAUUACGCCGC | -2.69 ± 0.29 |  |
| UGCCAGCAAUAUUACGCAAC |  | -0.966 ± 0.42 |
| CCUUAGCAAUAUUACGGCGA | -4.24 ± 0.39 | -1.96 ± 0.2 |
| GGCUAGCAAUAUUACGGUAC | -1.91 ± 0.17 | -0.733 ± 0.14 |
| GCUUAGCAAUAUUACGUAGA | -0.53 ± 0.076 | 0.396 ± 0.093 |
| AAUCAGCAAUAUUACGCCUA | -0.0982 ± 0.08 | 0.103 ± 0.09 |
| GCUCAGCAAUAUUACGGCUG | -2.99 ± 0.29 | -2.1 ± 0.34 |
| UCAGAGCAAUAUUACGAAAG | -2.84 ± 0.36 | -1.6 ± 0.38 |
| CACAAGCAAUAUUACGGCUU | -3.67 ± 0.19 | -2.98 ± 0.23 |
